For one molecule, stoichiometry N results are on record in publication PMC4118026.

Where “and” joins values, the source holds several entries; their conditions need not be identical. Equal entries are not always repeated.

The test deals with T1, apoptosis-associated speck-like protein containing a CARD (mouse (endogenous in primary cortical astrocytes)), Q9EPB4.
T1 chain: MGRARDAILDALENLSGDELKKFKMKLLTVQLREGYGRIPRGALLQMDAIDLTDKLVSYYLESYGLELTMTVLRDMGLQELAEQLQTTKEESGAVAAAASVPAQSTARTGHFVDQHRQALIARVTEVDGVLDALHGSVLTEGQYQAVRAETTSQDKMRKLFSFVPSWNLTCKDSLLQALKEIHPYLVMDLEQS
In words: cross-linking; astrocytes treated with ATP, LPS or ethanol, lysed in PBS/Triton 0.5%; 8000 x g pellets cross-linked with 2 mM DSS for 30 min at room temperature; 12% SDS-PAGE, blot with anti-mouse ASC. The note with it: remark: other sources report otherwise.

B1: apoptosis-associated speck-like protein containing a CARD, Q9EPB4 1-193 (natural protein)
chain: T1 chain
In general, stoichiometry N refers to the number of molecules, sites or subunits per partner or assembly. Take B1: the stoichiometry N is 2 and 3.
